For one substance, IC50 of inhibition of glucose production in H4IIE cells (24 hr treatment) and activity in inhibition of glucose production in H4IIE cells relative to proinsulin and insulin results are on record in patent publication US10513563.

The test has as its target transferrin receptor on H4IIE hepatoma cells (rat) (UniProt Q99376). The test can be described thus: cell-based or functional assay.
Sequence of UniProt Q99376 (Q99376 whole entry): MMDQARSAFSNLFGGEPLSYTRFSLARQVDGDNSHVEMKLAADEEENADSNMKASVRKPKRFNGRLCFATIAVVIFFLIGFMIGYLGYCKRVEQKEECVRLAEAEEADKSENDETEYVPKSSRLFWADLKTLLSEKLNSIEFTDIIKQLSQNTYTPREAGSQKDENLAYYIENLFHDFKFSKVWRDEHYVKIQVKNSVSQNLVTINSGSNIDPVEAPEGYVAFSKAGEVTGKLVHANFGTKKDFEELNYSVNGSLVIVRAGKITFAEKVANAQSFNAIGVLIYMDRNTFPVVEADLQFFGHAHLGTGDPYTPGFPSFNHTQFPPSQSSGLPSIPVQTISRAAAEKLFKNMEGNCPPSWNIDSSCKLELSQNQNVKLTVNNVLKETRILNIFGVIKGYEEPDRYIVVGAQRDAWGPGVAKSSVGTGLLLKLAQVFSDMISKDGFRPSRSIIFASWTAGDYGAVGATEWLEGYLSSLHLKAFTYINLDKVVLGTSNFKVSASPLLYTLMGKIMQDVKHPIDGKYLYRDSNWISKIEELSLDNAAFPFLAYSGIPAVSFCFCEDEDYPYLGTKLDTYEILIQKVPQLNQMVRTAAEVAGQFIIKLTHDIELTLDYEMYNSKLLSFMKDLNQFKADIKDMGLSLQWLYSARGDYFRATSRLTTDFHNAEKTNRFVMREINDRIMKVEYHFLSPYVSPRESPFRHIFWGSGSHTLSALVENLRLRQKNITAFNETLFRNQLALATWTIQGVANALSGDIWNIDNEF

Consider “PI-Tf fusion protein (proinsulin-transferrin recombinant fusion protein)”, for which the IC50 of inhibition of glucose production in H4IIE cells (24 hr treatment) turned out to be 4.6 pM; the activity in inhibition of glucose production in H4IIE cells relative to proinsulin and insulin stood at 300 fold.
